{"source": "paper PMC2064105", "about": "(The Journal of Cell Biology, 2007)", "binders": {"B1": {"name": "purified recombinant Nup53p (natural protein, S. cerevisiae, UniProt Q03790 1-475, looked up)", "chain": "MADLQKQENSSRFTNVSVIAPESQGQHEQQKQQEQLEQQKQPTGLLKGLNGFPSAPQPLFMEDPPSTVSGELNDNPAWFNNPRKRAIPNSIIKRSNGQSLSPVRSDSADVPAFSNSNGFNNVTFGSKKDPRILKNVSPNDNNSANNNAHSSDLGTVVFDSNEAPPKTSLADWQKEDGIFSSKTDNIEDPNLSSNITFDGKPTATPSPFRPLEKTSRILNFFDKNTKTTPNTASSEASAGSKEGASTNWDDHAIIIFGYPETIANSIILHFANFGEILEDFRVIKDFKKLNSKNMSKSPSLTAQKYPIYTGDGWVKLTYKSELSKSRALQENGIIMNGTLIGCVSYSPAALKQLASLKKSEEIINNKTSSQTSLSSKDLSNYRKTEGIFEKAKAKAVTSKVRNAEFKVSKNSTSFKNPRRLEIKDGRSLFLRNRGKIHSGVLSSIESDLKKREQASKSKKSWLNRLNNWLFGWNDL"}}, "molecular_target": "T1, purified recombinant Kap121p (S. cerevisiae, UniProt P32337 1-1089)", "T1 sequence (looked up)": "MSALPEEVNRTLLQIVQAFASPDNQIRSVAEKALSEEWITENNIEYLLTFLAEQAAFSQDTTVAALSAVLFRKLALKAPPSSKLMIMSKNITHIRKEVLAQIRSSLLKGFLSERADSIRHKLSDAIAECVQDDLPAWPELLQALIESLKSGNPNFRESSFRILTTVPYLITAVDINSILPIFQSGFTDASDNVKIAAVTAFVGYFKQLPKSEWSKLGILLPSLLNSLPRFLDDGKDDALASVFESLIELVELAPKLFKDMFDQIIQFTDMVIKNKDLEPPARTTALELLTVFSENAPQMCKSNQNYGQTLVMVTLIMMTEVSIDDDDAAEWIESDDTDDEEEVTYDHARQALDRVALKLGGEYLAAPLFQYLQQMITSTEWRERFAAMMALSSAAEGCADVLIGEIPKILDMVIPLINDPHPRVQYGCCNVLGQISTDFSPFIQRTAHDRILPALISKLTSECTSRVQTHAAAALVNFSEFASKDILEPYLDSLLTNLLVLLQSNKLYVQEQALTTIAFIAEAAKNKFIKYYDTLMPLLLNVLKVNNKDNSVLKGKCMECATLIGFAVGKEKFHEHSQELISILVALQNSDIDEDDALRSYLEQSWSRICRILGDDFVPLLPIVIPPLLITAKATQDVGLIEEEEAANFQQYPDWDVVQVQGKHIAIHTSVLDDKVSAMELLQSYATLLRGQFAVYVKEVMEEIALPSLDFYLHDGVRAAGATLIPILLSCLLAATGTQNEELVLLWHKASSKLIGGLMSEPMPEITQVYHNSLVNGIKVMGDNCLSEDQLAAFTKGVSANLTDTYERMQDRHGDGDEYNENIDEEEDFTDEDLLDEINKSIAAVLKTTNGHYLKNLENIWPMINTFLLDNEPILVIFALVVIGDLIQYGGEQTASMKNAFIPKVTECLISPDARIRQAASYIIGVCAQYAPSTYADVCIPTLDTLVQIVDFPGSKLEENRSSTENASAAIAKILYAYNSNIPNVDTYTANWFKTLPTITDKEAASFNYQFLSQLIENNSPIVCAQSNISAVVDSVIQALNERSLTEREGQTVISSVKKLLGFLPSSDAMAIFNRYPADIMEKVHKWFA", "assay": "pull-down", "data": [{"binder": "B1", "values": [{"measurement": "binding result", "result": "binds"}]}]}
